Among the data in paper PMC3659287 are Kd values, retold here.

This experiment concerns the target wild-type pneumolysin (PLY) (Streptococcus pneumoniae) (UniProt Q04IN8). Put plainly: ELISA.
Sequence of UniProt Q04IN8 (Q04IN8 whole entry): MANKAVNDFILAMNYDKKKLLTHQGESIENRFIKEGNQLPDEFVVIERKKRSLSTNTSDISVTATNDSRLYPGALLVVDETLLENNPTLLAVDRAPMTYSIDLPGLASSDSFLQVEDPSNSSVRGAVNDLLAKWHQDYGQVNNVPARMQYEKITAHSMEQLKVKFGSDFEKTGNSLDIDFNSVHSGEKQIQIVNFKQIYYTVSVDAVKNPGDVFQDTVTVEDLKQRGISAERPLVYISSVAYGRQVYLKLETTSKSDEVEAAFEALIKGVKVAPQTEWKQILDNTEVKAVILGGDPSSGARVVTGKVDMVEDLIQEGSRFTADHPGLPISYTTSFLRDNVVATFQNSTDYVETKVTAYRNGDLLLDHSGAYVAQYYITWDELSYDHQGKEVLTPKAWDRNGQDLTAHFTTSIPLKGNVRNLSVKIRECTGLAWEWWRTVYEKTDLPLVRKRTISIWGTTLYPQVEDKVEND

Regarding “G-actin (non-muscle actin isolated from human platelets) (from UniProt P60709 1-375) (natural protein)”, the dissociation constant Kd was in the range of 170 to 190 nM.

As usually defined, the Kd is the free concentration of one partner at which half of the binding sites on the other are occupied at equilibrium, for simple one-to-one binding. A higher Kd goes with lower affinity.
